From the supplement of paper PMC11865577

Key:
Assay in all cases: pull-down binding Z-score (relative to library population); higher = stronger binding
Details in all cases: RNA library: Library-2
[1] = tested on: TO-3-N3 (biotin conjugate)
Outline: (§1)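 Binding is given as a Z-score against the library mean and standard deviation, calculated after removing the beads-only signal and averaging barcoded replicate probes without their highest and lowest values. Cy5- or Cy3-end-labelled RNA library (1 μg) was heat-folded in phosphate/NaCl/KCl buffer and incubated 60 min at 25 °C with streptavidin beads bearing 100 pmol of biotin-conjugated small molecule. After three washes, RNA eluted in hot SDS was hybridised to a DNA barcode microarray for 20 h at 55.5 °C.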

[2] = tested on: TO-3-N3-2 (biotin conjugate)
Outline: as §1

[3] = tested on: TO-N3-2 (biotin conjugate)
Outline: as §1

[4] = tested on: TO-N3 (biotin conjugate)
Outline: as §1

Sequence | pull-down binding Z-score [1] | pull-down binding Z-score [2] | pull-down binding Z-score [3] | pull-down binding Z-score [4]
GUUAAUGCCUAUAUUAACCUUGACCAGGGCUUUAAC | 0.238 | -0.198 | -0.216 | -0.0902
CCUGCACCACGCACAUUGCUAACUAAGG [SHAPE_invitro_SARS-CoV-2_Motif_318] | -0.429 | -0.173 | 0.0122 | -0.204
CUGUCCAAGACAUGUGAUCUGCACCUCUGAAGACAUGCUUAACCCUAAUUAUGAAGAUUUACUCAUUCGUAAGUCUAAUCAUAAUUUCUUGGUACAG | -0.274 | -0.739 | -0.0124 | -0.347
GCCCCAUUCCUUGAUCGGCUUCGCCGAGAUCAGAAAUCCCUAAGAGGAAGGGGC [IAV_invivo_NS1_NEP_8_Motif_3+IAV_invivo_NS1_NEP_8_Motif_3] | -0.845 | -0.223 | 0.181 | -0.849
GCUUCAAGAGAGC | -0.0727 | -0.171 | -0.212 | -0.0808
AGUGCCAACAGACAAUUAUAUAACCACUUACCCGGGUCAGGGUUUAAAUGGUUACACU | -0.449 | -0.123 | -0.739 | -0.462
GCUAUCUAACCUUAACUUGCCUGGUUGUGAUGGU [SHAPE_invivo_SARS-CoV-2_Motif_361] | 0.68 | 0.311 | 0.466 | 0.716
AUUACUGCAAAAUGGUAUGAAUGGACGUACCAUAUUGGGUAGU [DMSMaPseq_invitro_SARS-CoV-2_Motif_194] | 0.151 | 0.144 | -0.151 | 0.0935
GUUCUUGAGUGUAAUGUGAAAACUACCGAAGUUGUAGGAGACAUUAUACUUAAACCAGC | -0.133 | 0.0674 | 0.162 | 0.111
UAUCCAAACGCAAGCUUCGAUAAUUUUAAGUUUGUAUGUGAUA [DMSMaPseq_invitro_SARS-CoV-2_Motif_115] | 0.127 | 0.145 | -0.609 | -0.225
CAACGGUACUAUUACCGUUG | -0.275 | -0.426 | -1.59 | -0.553
AGUUGUGAUCAACU | -0.744 | -0.728 | -1.24 | -1.06
CCUGAAUCUUGG [IAV_invivo_PB1_2_Motif_21+IAV_invivo_PB1_2_Motif_21] | -0.834 | -0.491 | -0.502 | -0.925
ACCGGUGGAAUUGCUAUCGCAAUGGCUUGUCUUGUAGGCUUGAUGUGGCUCAGCUACUUCAUUGCUUCUUUCAGACUGUUUGCGCGUACGCGUUCCAUGUGGU | 1.2 | 0.131 | 0.838 | 1.07
GGGUAGGGUUUGGGGGAGAGCGUGGGCUGGGGUUCAGGGACA [pre-miRNA-1229_WT_FL] | 7.43 | 8.09 | 5.13 | 6.62
CUUCCGAGUCAUAGGAAACUAUGACAUACAGAUCAACAGGGGCUCGCUUGAGCCCCCCAGCCAGUCGGAGG [mMTR1] | -0.97 | -0.458 | -0.704 | -1.09
CAGAGUCACAUGUUGACACUG | 0.214 | -0.263 | -0.894 | -0.0159
UGCCUUCAAACUCAACAUUAAAUUGUUGGGUGUUGGUGGCA | -0.701 | -0.352 | -1.07 | -0.909
UAGUCCUGUUGCACUACGACAGAUGUCUUGUGCUGCCGGUACUA [DMSMaPseq_invitro_SARS-CoV-2_Motif_226] | -0.727 | -0.381 | -0.478 | -0.821
AAGACUCAUCUCUAUGAUGGGUUUU | -0.938 | -0.575 | -1.46 | -1.34
GGGCUGUGACCACUGAAGUGGCAUUUGGCCU [IAV_invivo_M1_M2_7_Motif_9+IAV_invivo_M1_M2_7_Motif_9] | -0.255 | -0.255 | 0.272 | -0.176
GUGUACCUUCCUUACCCAGAUCCAUCAAGAAUCCUAGGGGCCGGCUGUUUUGUAGAUGAUAUCGUAAAAACAGAUGGUACAC [SHAPE_invivo_SARS-CoV-2_Multi_39_ComplexLevel_1] | 0.725 | -0.087 | 0.318 | 0.78
GGGGCGUUUAUGCAACCC [IAV_invivo_PB1_2_Motif_33+IAV_invivo_PB1_2_Motif_33] | -0.754 | -0.277 | -0.334 | -0.497

Sequence | pull-down binding Z-score [1] | pull-down binding Z-score [2] | pull-down binding Z-score [3] | pull-down binding Z-score [4]
CUGUUCCACCAUUGAAGAGCUCAG [IAV_invivo_PB1_2_Motif_38+IAV_invivo_PB1_2_Motif_38] | -0.372 | -0.178 | 0.457 | 0.134
GGAAUUGCAAUGUCGAUAGAUAUCCUGCUAAUUCC [DMSMaPseq_invitro_SARS-CoV-2_Motif_342] | -0.203 | -0.418 | -0.212 | -0.229
UCACACUAAAAAGUGGA | -0.691 | -0.477 | -1.15 | -1.1
GUCUGAUAAUGGACCCCAAAAUCAGCGAAAUGCACCCCGCAUUACGUUUGGUGGACCCUCAGAU | -0.49 | -0.237 | -0.0686 | -0.521
GAGGUAAGUACGAUACUUACCUG [U1snRNP5ss-7] | -0.856 | -0.544 | -0.876 | -1.17
AUACCUGCACGUGCUCGUGUAGAGUGU | 0.0809 | -0.0175 | -0.468 | -0.0676
AAAGUGCAGUGAAAAGAACAAUCAAGGGUACACACCACUGGUUGUUACUCACAAUUUUGACUUCACUUU | -0.381 | -0.0864 | 0.0106 | -0.172
CUAAUAACACUAAAGGUUCAUUGCCUAUUAAUGUUAUAG | 0.171 | -0.0592 | -0.904 | -0.0515
GGCCUUGAAGCC [SHAPE_invitro_SARS-CoV-2_Motif_466] | -0.406 | -0.216 | -0.459 | -0.703
GGGAGAUAACAUUCC [IAV_invivo_M1_M2_7_Motif_7+IAV_invivo_M1_M2_7_Motif_7] | -0.149 | -0.0296 | -0.107 | -0.16
AAUUAUAAAUUACCAGAUGAUUUUACAGGCUGCGUUAUAGCUUGGAAUUCUAACAAUCUUGAUUCUAAGGUUGGUGGUAAUUAUAAUU | -0.932 | -0.123 | -0.712 | -0.993
GCUAAAUUGUUACAUAAACCUAUUGUUUGGCAUGUUAACAAUGCAACUAAUAAAGCCACGUAUAAACCAAAUACCUGGUGUAUACGUUGUCUUUGGAGC | -1.1 | -0.0887 | -1.05 | -1.4
CUUCUGCUGCUCUUCAACCUGAAGAAGAGCAAGAAGAAG | -0.349 | -0.22 | -0.79 | -0.368
AAAAAUCUUAGGGAAUUUGUGUUUAAGAAUAUUGAUGGUUAUUUUAAAAUAUAUUCUAAGCACACGCCUAUUAAUUUAGUGCGUGAUCUCCCUCAGGGUUUUU | -0.855 | 0.151 | -0.421 | -0.959
CUAUAGUAGCUGGUGGUAUUGUAGCUAUCGUAG [SHAPE_invitro_SARS-CoV-2_Motif_182] | 0.653 | 0.54 | 1.04 | 0.874
GUUGUUACUCACAAUUUUGACUUCACUUUUAGUUUUAGUCCAGAGUACUCAAU | -0.826 | -0.324 | -0.924 | -0.965
GGAGUAAGUCUGAUACUUACCUG [U1snRNP5ss-1] | -0.0269 | -0.152 | 0.773 | 0.599
CAACUUACAAAUUAAAUGUUG | -0.448 | -0.152 | -1.06 | -0.698
GCAACUUGCUGUUGUUGUUUGUAACAGUUUACUCACACCUUUUGCUCGUUGC | -0.974 | -0.429 | -0.851 | -1.09
GCUAUGCAAAUGGC | -0.537 | -0.527 | -0.948 | -0.847
CAGACUUUAUGAGUGUCUCUAUAGAAAUAGAGAUGUUGACACAGACUUUGUGAAUGAGUUUUACGCAUAUUUGCGUAAACAUUUCUCAAUGAUGAUACUCUCUG | -0.919 | -0.449 | -1.1 | -1.21
GCGCUGCCAGAAACUGGCCGCGC [mismatch-UC] | -0.648 | -0.66 | -0.896 | -0.905
UAAUGGUUUAACUUCUAUUA [DMSMaPseq_invitro_SARS-CoV-2_Motif_100] | -0.945 | -0.395 | -1.37 | -1.33

Sequence | pull-down binding Z-score [1] | pull-down binding Z-score [2] | pull-down binding Z-score [3] | pull-down binding Z-score [4]
UGACGAUGCUGUUGUGUGUUUCAAUAGCACUUAUGCAUCUCA [SHAPE_invitro_SARS-CoV-2_Motif_289] | 1.24 | -0.0833 | -0.71 | 1.01
UGGUACUGAAGAUGAUUACCA [SHAPE_invitro_SARS-CoV-2_Motif_57] | -0.272 | 0.306 | 0.00913 | -0.278
ACAUUUUAUCUUACUAAUGAUGU [SHAPE_invivo_SARS-CoV-2_Motif_191] | -0.182 | -0.249 | -1.3 | -0.428
GGGGUGAAGAGGAUACUUACCUG [U1snRNP5ss-12] | 0.145 | 0.365 | 0.523 | 0.427
GUGCAGAAUGAAUUCUCGUAACUACAUAGCACAAGUAGAUGUAGUUAACUUUAAUCUCAC | -0.768 | -0.202 | -0.275 | -0.646
GAUUUUGGGACUACCAACUC | -0.579 | -0.384 | -0.581 | -0.683
ACCAUUGGUAGAUUUGCCAAUAGGU | -0.133 | -0.848 | -1.45 | -0.966
UUAAUGCCUGUCUGUGUGGAAACUAAAGCCAUAGUUUCAACUAUACAGCGUAAAUAUAAGGGUAUUAA [DMSMaPseq_invitro_SARS-CoV-2_Motif_83] | -0.287 | 0.502 | -0.463 | -0.439
UCAAGACUAUUCAACCAAGGGUUGAAAAGAAAAAGCUUGA [SHAPE_invivo_SARS-CoV-2_Motif_22] | -0.217 | -0.14 | -0.823 | -0.551
UGCUGUUGUUAAAAUUUAUUGUCCAGCA [SHAPE_invitro_SARS-CoV-2_Motif_28] | -0.341 | -0.134 | -0.921 | -0.582
GACUUGCUUUAGCACUCAAUUUGCUUUUGCUUGUC | 0.241 | -0.00573 | -1.08 | -0.0156
GCUAUGGGUAUUAUUGCUAUGUCUGCUUUUGCAAUGAUGUUUGUCAAACAUAAGCAUGCAUUUCUCUGUUUGUUUUUGUUACCUUCUCUUGCCACUGUAGC | -0.966 | -0.526 | -0.573 | -0.98
GGUGUGGAUGGCAUGCC [IAV_invivo_NP_5_Motif_17+IAV_invivo_NP_5_Motif_17] | -0.0853 | -0.0718 | 0.0568 | -0.121
GUCCUAUUACGGAU | -0.9 | -0.505 | -1.55 | -1.37
GAUGGCUUUCCUUGAGGAAUCCCAUC [IAV_invivo_PB1_2_Motif_6+IAV_invivo_PB1_2_Motif_6] | -1.04 | -0.719 | -0.986 | -1.41
CUGUUUUUCAG | -0.739 | -0.661 | -1.53 | -1.23
GGAAGAGACAGGUACGUUAAUAGUUAAUAGCGUACUUCUUUUUC | -0.226 | -0.193 | -0.494 | -0.585
AUGCUGUUACAGCGU | -0.973 | -0.512 | -1.07 | -1.35
UGGUGUUAGAAGGUCCUUUUAUGUCUAUGCUAAUGGAGGUAAAGGCUUUUGCAAACUA [SHAPE_invitro_SARS-CoV-2_Motif_149] | -0.638 | -0.276 | -0.562 | -0.58
CAGGCCACAAAUAGGCGUG | -0.638 | -0.502 | 0.278 | -0.509
UCCUAUUACGGA [SHAPE_invivo_SARS-CoV-2_Motif_121] | -0.479 | -0.643 | -1.27 | -0.905
GGAUCCCGACUGGCGAGAGCCAGGUAACGAAUGGAUCC [MG-aptamer] | -0.00379 | -0.524 | 2.4 | 0.277
GAAUGCGUCAUCAUCUGAAGCAUUU | -0.994 | -0.405 | -0.61 | -1.1
